Measured values taken from IntAct's records for PubMed 22981988.

B1: Arfaptin-1 (Homo sapiens), P53367 (parent)
chain: MAQESPKNSAAEIPVTSNGEVDDSREHSFNRDLKHSLPSGLGLSETQITSHGFDNTKEGVIEAGAFQGSPAPPLPSVMSPSRVAASRLAQQGSDLIVPAGGQRTQTKSGPVILADEIKNPAMEKLELVRKWSLNTYKCTRQIISEKLGRGSRTVDLELEAQIDILRDNKKKYENILKLAQTLSTQLFQMVHTQRQLGDAFADLSLKSLELHEEFGYNADTQKLLAKNGETLLGAINFFIASVNTLVNKTIEDTLMTVKQYESARIEYDAYRTDLEELNLGPRDANTLPKIEQSQHLFQAHKEKYDKMRNDVSVKLKFLEENKVKVLHNQLVLFHNAIAAYFAGNQKQLEQTLKQFHIKLKTPGVDAPSWLEEQ
B2: Arfaptin-1 (Homo sapiens), P53367 (parent)
chain: B1 chain
partner: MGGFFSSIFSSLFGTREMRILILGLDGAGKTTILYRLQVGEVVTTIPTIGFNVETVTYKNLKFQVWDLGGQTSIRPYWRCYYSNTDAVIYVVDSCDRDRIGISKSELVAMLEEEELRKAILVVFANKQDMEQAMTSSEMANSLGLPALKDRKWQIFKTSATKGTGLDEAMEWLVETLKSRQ

Variants of: B1
Details: with arf1_human ARF1, P84077
Chain of arf1_human ARF1, P84077 (P84077 whole entry): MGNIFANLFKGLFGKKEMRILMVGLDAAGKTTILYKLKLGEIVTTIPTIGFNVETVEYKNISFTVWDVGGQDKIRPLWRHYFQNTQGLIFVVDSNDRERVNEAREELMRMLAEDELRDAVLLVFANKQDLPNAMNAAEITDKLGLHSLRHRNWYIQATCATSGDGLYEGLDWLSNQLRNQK

Variant	effect of a mutation on the interaction
MAQESPKNSAAEIPVTSNGEVDDSREHSFNRDLKHSLPSGLGLSETQITSHGFDNTKEGVIEAGAFQGSPAPPLPSVMSPSRVAASRLAQQGSDLIVPAGGQRTQTKSGPVILADEIKNPAMEKLELVRKWDLNTYKCTRQIISEKLGRGSRTVDLELEAQIDILRDNKKKYENILKLAQTLSTQLFQMVHTQRQLGDAFADLSLKSLELHEEFGYNADTQKLLAKNGETLLGAINFFIASVNTLVNKTIEDTLMTVKQYESARIEYDAYRTDLEELNLGPRDANTLPKIEQSQHLFQAHKEKYDKMRNDVSVKLKFLEENKVKVLHNQLVLFHNAIAAYFAGNQKQLEQTLKQFHIKLKTPGVDAPSWLEEQ [S132D]	disrupting interaction strength

Variants of: B1
Details: with arf3_human ARF3, P61204
Chain of arf3_human ARF3, P61204 (P61204 whole entry): as the sequence (P84077 whole entry) above, with A6G, F9L, G11S, F13I, S174A, R178K, Q180K counted along it

Variant	effect of a mutation on the interaction
MAQESPKNSAAEIPVTSNGEVDDSREHSFNRDLKHSLPSGLGLSETQITSHGFDNTKEGVIEAGAFQGSPAPPLPSVMSPSRVAASRLAQQGSDLIVPAGGQRTQTKSGPVILADEIKNPAMEKLELVRKWDLNTYKCTRQIISEKLGRGSRTVDLELEAQIDILRDNKKKYENILKLAQTLSTQLFQMVHTQRQLGDAFADLSLKSLELHEEFGYNADTQKLLAKNGETLLGAINFFIASVNTLVNKTIEDTLMTVKQYESARIEYDAYRTDLEELNLGPRDANTLPKIEQSQHLFQAHKEKYDKMRNDVSVKLKFLEENKVKVLHNQLVLFHNAIAAYFAGNQKQLEQTLKQFHIKLKTPGVDAPSWLEEQ [S132D]	disrupting interaction strength
MAQESPKNSAAEIPVTSNGEVDDSREHSFNRDLKHSLPSGLGLSETQITSHGFDNTKEGVIEAGAFQGSPAPPLPSVMSPSRVAASRLAQQGSDLIVPAGGQRTQTKSGPVILADEIKNPAMEKLELVRKWALNTYKCTRQIISEKLGRGSRTVDLELEAQIDILRDNKKKYENILKLAQTLSTQLFQMVHTQRQLGDAFADLSLKSLELHEEFGYNADTQKLLAKNGETLLGAINFFIASVNTLVNKTIEDTLMTVKQYESARIEYDAYRTDLEELNLGPRDANTLPKIEQSQHLFQAHKEKYDKMRNDVSVKLKFLEENKVKVLHNQLVLFHNAIAAYFAGNQKQLEQTLKQFHIKLKTPGVDAPSWLEEQ [S132A]	with no effect

Variants of: B1
Details: with arf1_human ARF1, P84077
Remark: another data set of the same source

Variant	effect of a mutation on the interaction
MAQESPKNSAAEIPVTSNGEVDDSREHSFNRDLKHSLPSGLGLSETQITSHGFDNTKEGVIEAGAFQGSPAPPLPSVMSPSRVAASRLAQQGSDLIVPAGGQRTQTKSGPVILADEIKNPAMEKLELVRKWALNTYKCTRQIISEKLGRGSRTVDLELEAQIDILRDNKKKYENILKLAQTLSTQLFQMVHTQRQLGDAFADLSLKSLELHEEFGYNADTQKLLAKNGETLLGAINFFIASVNTLVNKTIEDTLMTVKQYESARIEYDAYRTDLEELNLGPRDANTLPKIEQSQHLFQAHKEKYDKMRNDVSVKLKFLEENKVKVLHNQLVLFHNAIAAYFAGNQKQLEQTLKQFHIKLKTPGVDAPSWLEEQ [S132A]	with no effect

Variants of: B2
Details: with arl1_human ARL1, P40616

Variant	effect of a mutation on the interaction
MAQESPKNSAAEIPVTSNGEVDDSREHSFNRDLKHSLPSGLGLSETQITSHGFDNTKEGVIEAGAFQGSPAPPLPSVMSPSRVAASRLAQQGSDLIVPAGGQRTQTKSGPVILADEIKNPAMEKLELVRKWALNTYKCTRQIISEKLGRGSRTVDLELEAQIDILRDNKKKYENILKLAQTLSTQLFQMVHTQRQLGDAFADLSLKSLELHEEFGYNADTQKLLAKNGETLLGAINFFIASVNTLVNKTIEDTLMTVKQYESARIEYDAYRTDLEELNLGPRDANTLPKIEQSQHLFQAHKEKYDKMRNDVSVKLKFLEENKVKVLHNQLVLFHNAIAAYFAGNQKQLEQTLKQFHIKLKTPGVDAPSWLEEQ [S132A]	with no effect
MAQESPKNSAAEIPVTSNGEVDDSREHSFNRDLKHSLPSGLGLSETQITSHGFDNTKEGVIEAGAFQGSPAPPLPSVMSPSRVAASRLAQQGSDLIVPAGGQRTQTKSGPVILADEIKNPAMEKLELVRKWDLNTYKCTRQIISEKLGRGSRTVDLELEAQIDILRDNKKKYENILKLAQTLSTQLFQMVHTQRQLGDAFADLSLKSLELHEEFGYNADTQKLLAKNGETLLGAINFFIASVNTLVNKTIEDTLMTVKQYESARIEYDAYRTDLEELNLGPRDANTLPKIEQSQHLFQAHKEKYDKMRNDVSVKLKFLEENKVKVLHNQLVLFHNAIAAYFAGNQKQLEQTLKQFHIKLKTPGVDAPSWLEEQ [S132D]	disrupting interaction strength
